This sample holds only a part of the variants without activity.
B1: TPR 5TU (parent)
chain: GGAUCUUCUCGAUCUAACAAAAAAGACAAAUCUGCCACAAAGCUUGAGAGCAUCUUCGGAUGCAGAGGCGGCAGCCUUCGGUGGCGCGAUAGCGCCAACGUUCUCAACUAUGACACGCAAAACGCGUGCUCCGUUGAAUGGAGUUUAUCAUG

Variants of: B1
Experiment: polymerase ribozyme fitness, log enrichment relative to wild type (log ratio); higher = more active; in vitro selection for triplet polymerase activity
Method in brief: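 One round of in vitro selection, in triplicate, was applied to PCR-built, transcribed mutant libraries of each subunit of a heterodimeric triplet polymerase ribozyme. The steps were annealing with a biotinylated primer, partner subunit and triplets, incubation frozen at −7 °C, gel excision of extended constructs, streptavidin-bead capture and RT-PCR. Fitness is the logarithm, base 2, of genotype enrichment over wild-type enrichment from inverse-variance-weighted replicate averages of Illumina-sequenced inputs and outputs, keeping genotypes with ≥10 input reads and ≥1 read per output.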

| Variant | polymerase ribozyme fitness (log ratio) |
| --- | --- |
| GGAUCUUCUCGAUUUAACAAAAAAGACAAAUCUGCCACAAUGCUUGAGAGCAUCUUCGGCUGCAGUGGCGGCAGCCUUCAGUGGUGCGAUAGCGCCAACGUUUUCAACUAUGACACGCAAAACGCGUGCUCCGUUGAAUGGAGUUUAUCAUG | ≤ -4.2 |
| GGAUCUUCUCGAUUUAACAACAAAGAUAAAUCUGCAACAAAGCUUGAGAGCAUCUUCGGAUUCAGAGGCGGCAGCCUUCCGUGGCACGAUAGCGCCAACGUUCUCAACUAUGACACGCAAAACGCGUGCUCCGUUGCAUGGAGUUUAUCAUG | -3.96 |
| GGAUCUUCUCGAUUUAACAAAAUAGACAAAUCUGCCACAAAGCUUGAGAGCAUCUCCGGAUGCAGAGGCGGCAGCCUUCGGUGGCGUGAGAGCGCCAACGUUCUCAACUAUGACACGCAAAACGCGUGCUCCGUUGAAUGGAGUUUAUCAUG | ≤ -4.2 |
| GGAUCUUCUCGAUUUAACACAAAAGACAAAUCUGCCACGAAGCUUGAGAGCGUCUACGGAUGCAGAGGCGGCAGCCUUCGGUGGCGCGAUAGCGCAAACGUUCUCAACUAUGACACGCAAUACGCGUGCUCCGUUGAAUGGAGUUUAUCAUG | -4 |
| GGAUCUUCUCGAUUUAACAAAAAAGACAAAUCUGCCACAACGCUUGAGAUCCUCUUCGGAUGCAGAGGCGGCAGCCUUCGGUGACGCGAGCGCGCCAACGUUCUCAACUAUGACAUGCAAAACGCGUGCUCCGUUGAAUAGAGUUUAUCAUG | ≤ -4.2 |
| GGAUCUUCUCGAUUUAACAAAAAAGACAAAUCUGCCACACAGCUUGAGAGCAUUUUCGGAUGAAGAGGCGGCAGCCUUCGGUGGCGCGAUAGCGUCAACGUUCUCCACUAUGACACGCAAAACGCGUGCUCCGUUGAAUGGAGUUUAUCAUG | ≤ -4.2 |
| GGAUCUUCUCGAUUUAACAAGAACGACUAAUCUGCCACAAAGCUUGAGAGCACCUUCGGAUGCAGAGGCGGCAGUCUUCGGUGGCGCGAUAGCGCCAACGUUCUCAACUAUGACACGCAAAACGCGUGCUCCGUUGAAUGGAGUUUAUCAUG | ≤ -4.2 |
| GGAUCUUCUCGAUUUAACAAAAAAGACAAAUCUGCCACAAUGCUUGAGAGCAUCUACGGAUGCAGAGGCGGCAGCCUUCGGUGGCGCGAUAGAGCCAACGUUCUCAACUAUGACACGCAAAAAGCGUGCUCCGUUGAAUGGAGUUUAUCAUG | ≤ -4.2 |
| GGAUCUUCUCGAUUUAACAAGAAAGACAAAUCUGCCAGAAAGCUUGAGAGCAUCUUAGGAUGCAGAGGCGGCAGCCUUUGGUGGCGCGAUAGCGCCAACGUUCUCAACUAUGACACGCAAAACGCGUGCUCCGUUGACUGGAGUUUACCAUG | ≤ -4.2 |
| GGAUCUUCUCGAUUUAACAAUAAAGACAAAUCUGCCACAAAGCUUGAGACCAUCUACGGAUGCAGCGGCGGCAGCCUUCGGUGGCGCGAUUGCGCCAACGUUCUCAACUAUGACACGCAAAACGCGUGCUCCGUUGAAUGGACUUUAUCAUG | ≤ -4.2 |
| GGAUCUUCUCGAUUUAACAAAACAGACAAAUCUGCCACAAAGCUUGAGAGCAUCUUCGGAUGCAGAGGCGGCAGCCUUCGGUGGCGCGAUAGCGCCAACGCACUCAACUAUGACACGCAAAACGCGUGCUCCGUUGAAUGGAGUUUAUCAGG | ≤ -4.2 |
| GGAUCUUCUCGAUUUAACAAAAAAGACUAAUCUGCCACAAAGCUUGAGAGCCUCUUCGGAUGCAGAGGCGGCAGCCUUCGGUGGCGCUAUGGCGCUAACGUUCUCAACUAUGACACGCAAAACGCGUGCUCCGGUGAAUUGAGUUUAUCAUG | ≤ -4.2 |
| GGAUCUUCUCGAUUUAACAAAAAAGACAAAUCUGCCACAAAGCUUGAGAGCAUCUUCGGUUGCAGAGGCGGCAGCCUUCGGUGGCGCGAUAGCGCGAACGUUCUCAACUAUGACACGCAAAACGCGUGCUCCGUUGAAUGGAGUUUAUCAUG | ≤ -4.2 |
| GGAUCUUCUCGAUUUAACAAAAUAGACAAAACUGCCACAAAGCUUGCGAGCAUCUUCGGAUGCAGAGGCGGCAGCCUUCGGUGGCGCGAUACCGCGAACGUUCUCAACUAUGACACGCAAAACGCGUGCUACGUUGAAUGGAGUUUAUCAUG | ≤ -4.2 |
| GGAUCUUCUCGAUUUAACAAAAAUGACAAAUCUGCCACAAAGCUUGAGAGCAUCAUCGGAUGCAGAGGCCGCAGCCUUCGGUGGCGCGAUAGCACCAACGUUCUCAACUAUGACAGGCAAAACGCGUGCUCCGUUGAAUGGAGUUUAUCAUG | ≤ -4.2 |
| GGAUCUUCUCGAUUUAACAAAUAAGACAAAUCUGCCACAAUGCUUGAGAGCAUCUUCGGAUGCAGAGGCGGCAGCCUUCGGUGGCGCGAUAGCGCCAACGUUCUCAACUAUGACACGCACAACGCGUGCUCCGUUGAAUGGAGUUUAUCAUG | -3.1 |
| GGAUCUUCUCGAUUUAACAAAAAAGACAAUUCUGCCACAAAGCUUGAGAGCAGCUUCUGAUGCACAGGCGGCAACCUUCGGUGGCGCGAUAGCGCCAACGUUCUCAACUAUGACACGCAAAACGCGUGCUCCGUUGAAUGGAGUUUAUCAUG | ≤ -4.2 |
| GGAUCUUCUCGAUUUAACAAAAAAGACAAAUCUGCCACCAAGCUUGAGAGCAUCUUCGGAUGCAGAGGCGCCAGCCUUCGGUGGUGCGAUAGCGCCGACGUUCUCAACUAUGACACGCAAAACGCGUGCUCCGUUGAAUGGAGUUUAUCAUG | ≤ -4.2 |
| GGAUCUUCUCGAUUUAACAACAAAGACAAAUCUGCCACAAAGCUUGAGAGCAUCUUCGGAUGCAGAUGCGGCAGCCAUCGGUGGGGCGAUAGCGCUAACGUUCUCAACUAUGACACGCAAAACGCGGGCUCCGUUGAAUGGAGUUUAUCAUG | ≤ -4.2 |

From the RNAGym collection of RNA variant scans (doi:10.1073/pnas.2313332121)
